Patent publication US5783421
pKi: −log10 of the molar value.

How the values were obtained:
[1] = biological target: Factor Xa; assay: modified prothrombinase complex assay (50 pM FXa, 1.35 µM prothrombin)
[2] = biological target: Factor Xa; assay: inhibition of FXa in the prothrombinase complex assay (250 pM FXa, 2.67 µM prothrombin)
[3] = biological target: Factor Xa

- pKi [1]: 9.92
- pKi [2]: 10.14
- IC50, generation of thrombin from prothrombin by FXa in a prothrombinase complex [3]: 0.19 nM
Substance: naturally occurring FXa inhibitor isolated from dilute leech saliva (DLS) of Hirudo medicinalis
